Measurements taken from US20230133118A1, “COMPOSITIONS AND METHODS FOR TREATING CANCER” (Adagene AG, priority 2020, published 2023).

Columns and labels:
[1] = Clinical immunogenicity, anti-drug antibody (ADA) immunoassay; assay type: in vivo, human
Experimental: Blood samples were collected as described in the PK analysis. The anti-drug-antibody (ADA) to ADG106 in human serum was measured using a validated Affinity Capture and Elution (ACE) based immunoassay. All samples were first analyzed for ADAs in a screening assay. Study samples with results below the screening cut-off were reported as negative for ADAs. In the event of a positive result in the screening assay, samples were analyzed in the confirmatory assay. All samples confirmed positive were reported as positive.

[2] = GLP repeat-dose toxicity and safety pharmacology in cynomolgus monkeys; assay type: in vivo, cynomolgus monkey
[3] = system: L5178-R murine T cell lymphoma; experiment: L5178-R murine T cell lymphoma syngeneic model; assay type: in vivo, DBA/2 mice; conditions: 20 mg/kg i.p. once every 3 days
Description: (§1) The animals were randomized and treatment started when tumor volumes reach 50-80 mm^3, or on the day of cell inoculation (FIGS. 17A and 17C). Each group consisted of 8 tumor-bearing mice. […] Tumor growth and animal body weight were monitored every 2-3 days.

[4] = system: L5178-S murine T cell lymphoma; experiment: L5178-S murine T cell lymphoma syngeneic model; assay type: in vivo, DBA/2 mice; conditions: 20 mg/kg i.p. once every 3 days
Description: as §1

Lewis lung cancer cells = experiment: Lewis lung cancer model, ADG106 with anti-PD-1 antibody 2E5; assay type: in vivo, C57BL/6 mice; conditions: 5 mg/kg i.p. twice a week for 2 weeks
Description: C57BL16 mice (n=8 per group, female, 6-8 weeks old) were transplanted subcutaneously with 5×10^5 Lewis lung cancer cells. […] Tumor growth was monitored twice weekly and reported as mean tumor volume ±SEM over time.

4T1 breast cancer cells = experiment: 4T1 breast cancer model, ADG106 with ADG116; assay type: in vivo, BALB/c mice; conditions: ADG106 5 mg/kg, ADG116 2 mg/kg i.p. twice a week for 2 weeks
Description: Tumor growth was monitored twice weekly and is reported as mean tumor volume ±SEM over time.

CD137 receptor = experiment: Cellular NFκB reporter gene assay (CD137-expressing NFκB-Luc Jurkat reporter cells); assay type: cell-based, human; conditions: functional cellular NFκB reporter gene assay
Experimental: (§2) The CD137-expressing NFκB-Luc Jurkat reporter cells were stimulated with the anti-CD137 antibodies in the absence (left panel) or presence (right panel) of co-cultured CHO-K1 cell expressing human FcγRIIb. Luciferase activity was measured by bioluminescence assay.

C1q, human FcγR1 = experiment: C1q and FcγR1 binding, NK cell ADCC on activated human CD8+ T cells
rabbit blood = experiment: In vitro hemolysis in rabbit blood; conditions: concentrations up to 2.54 mg/mL
Description: Furthermore, with the cytoplasmic nature of the staining, no significant biological relevancy is anticipated.

[5] = system: CT-26 (colon carcinoma), H22 (liver cancer), EMT6 (breast cancer); experiment: Single agent efficacy in syngeneic mouse tumor models (CT-26, H22, EMT6); assay type: in vivo
NK (CD16+/CD56+) cells = experiment: TBNK flow cytometry of patient peripheral blood, NK cell percentage; assay type: in vivo, human; conditions: 32 patients analyzed
[6] = Clinical pharmacokinetics, serum ADG106 by ELISA, non-compartmental analysis
Experimental: Blood samples for PK analysis were collected at Cycle 1 (Day 1: pre-dose and 2, 6, 12, and 24 hours after the end of infusion; once on Days 8, 15, and 22), Day 1 pre-dose and 2 hours after the end of infusion of subsequent cycles, and at the End of Treatment. […] PK parameters were estimated using a non-compartmental method with WinNonlin.

CD137 = CD137 (Homo sapiens, UniProt Q07011); experiment: Cellular NFκB reporter gene assay (CD137-expressing NFκB-Luc Jurkat reporter cells); assay type: cell-based; set-up: expressed in transfected cells; host or cells: NFκB-Luc Jurkat reporter cells (with or without co-cultured CHO-K1 cells expressing human FcγRIIb)
Sequence of CD137 (Q07011 24-255): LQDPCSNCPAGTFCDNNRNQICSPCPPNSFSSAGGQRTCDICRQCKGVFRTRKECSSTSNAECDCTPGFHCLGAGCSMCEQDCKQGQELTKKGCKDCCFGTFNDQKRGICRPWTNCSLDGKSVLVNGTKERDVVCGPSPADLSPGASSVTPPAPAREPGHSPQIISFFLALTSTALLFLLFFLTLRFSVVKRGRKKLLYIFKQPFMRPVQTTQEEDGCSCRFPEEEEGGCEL
Experimental: as §2

ADG106: fully human agonistic anti-CD137 monoclonal IgG4 antibody; heavy chain SEQ ID NO: 10, light chain SEQ ID NO: 11
treatment emergent or boosted ADA ([1]; Chinese patients tested so far): 5 of 23
patients with treatment-induced anti-drug antibodies ([1]; patients tested): about 20%
NOAEL and HNSTD ([2]; cynomolgus monkey, in vivo): > 200 mg/kg
NOEL and NOAEL ([2]; once weekly IV infusion up to 29 days): 200 mg/kg
antitumor activity [3]: resistant to ADG106 treatment
antitumor activity [4]: has antitumor activity
tumor growth, single agent (Lewis lung cancer cells): significantly inhibit tumor growth
anti-tumor activity, monotherapy (4T1 breast cancer cells): showed anti-tumor activity
potency to activate recombinant human, monkey, mouse, and rat CD137 receptors (CD137 receptor): comparable nanomolar potency
C1q binding (C1q, human FcγR1): unable to bind C1 q
binding affinity for human FcγR1 protein (C1q, human FcγR1): low binding affinity
NK cell antibody-dependent cell-mediated cytotoxicity on activated human CD8+ T cells (C1q, human FcγR1; human whole cell assays): did not show detectable
hemolysis (rabbit blood): no ADG106-related hemolysis
single agent efficacy in CT-26, H22 and EMT6 syngeneic models ([5]; mouse, in vivo): single agent anti-tumor efficacy
median effective dose (ED50) ([5]; syngeneic mouse liver and breast cancer models): approximately 1 mg/kg
patients with a decrease of the NK cell level (NK (CD16+/CD56+) cells): 6%
patients with no change of the NK cell level (NK (CD16+/CD56+) cells): 6%
patients with an increase of the NK cell level in peripheral blood (NK (CD16+/CD56+) cells; after first cycle): 88%
AUC(0-t) ([6]; Chinese study, 0.1 mg/kg IV): 255 mg·h/L
CLz ([6]; Chinese study, 0.1 mg/kg IV): 0.37 mL/h/kg
AUC(0-t) ([6]; Chinese study, 0.5 mg/kg IV): 1761 mg·h/L
CLz ([6]; Chinese study, 0.5 mg/kg IV): 0.28 mL/h/kg
T½ ([6]; Chinese study, 0.5 mg/kg IV): 6.1 days
AUC(0-t) ([6]; Chinese study, 1.5 mg/kg IV): 4162 mg·h/L
CLz ([6]; Chinese study, 1.5 mg/kg IV): 0.33 mL/h/kg
T½ ([6]; Chinese study, 1.5 mg/kg IV): 7.5 days
AUC(0-t) ([6]; Chinese study, 3 mg/kg IV): 10016 mg·h/L
CLz ([6]; Chinese study, 3 mg/kg IV): 0.25 mL/h/kg
T½ ([6]; Chinese study, 3 mg/kg IV): 8.9 days
AUC(0-t) ([6]; Chinese study, 5 mg/kg IV): 20966 mg·h/L
CLz ([6]; Chinese study, 5 mg/kg IV): 0.22 mL/h/kg
T½ ([6]; Chinese study, 5 mg/kg IV): 7.2 days
AUC(0-t) ([6]; Chinese study, 10 mg/kg IV): 39658 mg·h/L
CLz ([6]; Chinese study, 10 mg/kg IV): 0.23 mL/h/kg
T½ ([6]; Chinese study, 10 mg/kg IV): 5.5 days
AUC(0-t) ([6]; US study, cycle 1, 0.03 mg/kg IV, n=1): 0.626 mg·h/L
AUC(0-t) ([6]; US study, cycle 1, 0.1 mg/kg IV, n=1): 0.668 mg·h/L
AUC(0-t) ([6]; US study, cycle 1, 0.3 mg/kg IV, n=1): 1.387 mg·h/L
AUC(0-t) ([6]; US study, cycle 1, 1 mg/kg IV, n=3): 3.8767 mg·h/L
AUC(0-t) ([6]; US study, cycle 1, 3 mg/kg IV, n=3): 18.42 mg·h/L
mean half-life ([6]; doses ≥0.5 mg/kg): around 7 days
concentration saturating activation of CD137 receptor signaling (CD137; crosslinking-dependent, in vitro): 1 µg/mL
EC80 of NFκB signaling activation (CD137; nonlinearly regressed concentration-effect curve): ≤ 1.8 µg/mL
human CD137 agonism following crosslinking (CD137; with crosslinking): function as agonists
